This assay concerns N,N-dimethylcasein. The assay is described as follows: Chemostability: residual Tgase activity after 24 hour incubation at 20-30 °C, normalized to wild-type. The class given is biochemical. The settings on record: improvement relative to wild-type mature Tgase (SEQ ID NO: 2); residual activity after 24 h at 20-30 °C in cell-free extract. The procedure: Table 5 depicts variants of Streptomyces mobaraensis Tgase and improvement to stability relative to wild-type mature Tgase (SEQ ID NO. 2) as determined in Example 3. Numbering of amino acid positions is in reference to the mature S. mobaraensis Tgase sequence depicted in SEQ ID NO. 2. A “+” indicates an improvement between 1.2 and 2-fold. A “++” indicates an improvement greater than 2-fold.
To evaluate chemostability, Tgase samples in cell-free extract were assayed for activity, using the assay described in Example 4B, immediately after expression and again following a 24 hour incubation at 20-30° C. Mature Tgase variant residual activity was normalized to the residual activity of the wild-type and results are depicted in Table 5.
Protein functionalization by Tgase variants was determined by the fluorogenic labeling of casein using monodansylcadaverine (e.g., a commercially available kit such as the Transglutaminase Fluorogenic Activity Assay Kit, T036, Zedira, Germany). Tgase activity was monitored by measuring fluorescence (excitation wavelength 332 nm; emission wavelength 500 nm) using a BioTek Synergy H1 microplate reader. Transglutaminase-catalyzed covalent coupling (crosslinking) of monodansylcadaverine with N,N-dimethylcasein produces a product that causes a shift in intensity and wavelength of fluorescence of the dansyl group now linked to the casein. The relative transglutaminase activity is shown by increase of fluorescence intensity over time. Enzyme variant loading was optimized based on expression levels, ensuring enzyme was the rate limiting factor. Briefly, cell-free reactions (set up as described in Example 2A) were first diluted 10-fold using phosphate buffer, pH 7.4, and a 5 microliter aliquot was analyzed.

Residue numbers refer to the chain shown, from its start. Names may count otherwise.

B1: S5: Tgase variant S2P Q39N Q51E relative to SEQ ID NO: 2 (protein, UniProt P81453 77-407, looked up, variant S2P Q39N Q51E)
Protein-glutamine …: DPDDRVTPPAEPLDRMPDPYRPSYGRAETVVNNYIRKWNQVYSHRDGRKQEMTEEQREWLSYGCVGVTWVNSGQYPTNRLAFASFDEDRFKNELKNGRPRSGETRAEFEGRVAKESFDEEKGFQRAREVASVMNRALENAHDESAYLDNLKKELANGNDALRNEDARSPFYSALRNTPSFKERNGGNHDPSRMKAVIYSKHFWSGQDRSSSADKRKYGDPDAFRPAPGTGLVDMSRDRNIPRSPTSPGEGFVNFDYGWFGAQTEADADKTVWTHGNHYHAPNGSLGAMHVYESKFRNWSEGYSDFDRGAYVITFIPKSWNTAPDKVKQGWP
On to B1, for which the Stability entry is “+ (an improvement between 1.2 and 2-fold)”.

B2: S3: Tgase variant S2P Q50A relative to SEQ ID NO: 2 (protein, UniProt P81453 77-407, looked up, variant S2P Q50A)
Protein-glutamine …: B1 Protein-glutamine … with N39Q, Q50A, E51Q
For the molecule B2, the Stability result is listed as “++ (an improvement greater than 2-fold)”.

B3: S14: Tgase variant S2P Q50S Q51E Q56E relative to SEQ ID NO: 2 (protein, UniProt P81453 77-407, looked up, variant S2P Q50S Q51E Q56E)
Protein-glutamine …: B1 Protein-glutamine … with N39Q, Q50S, Q56E
Take B3: the Stability entry was “++ (an improvement greater than 2-fold)”.

B4: S13: Tgase variant S2P Q124N K151R K152R relative to SEQ ID NO: 2 (protein, UniProt P81453 77-407, looked up, variant S2P Q124N K151R K152R)
Protein-glutamine …: B1 Protein-glutamine … with N39Q, E51Q, Q124N, K151R, K152R
As for B4, the Stability entry was “+ (an improvement between 1.2 and 2-fold)”.

B5: S15: Tgase variant S2P Q51P Q56M Q74A K91E relative to SEQ ID NO: 2 (protein, UniProt P81453 77-407, looked up, variant S2P Q51P Q56M Q74A K91E)
Protein-glutamine …: B1 Protein-glutamine … with N39Q, E51P, Q56M, Q74A, K91E
Take B5: the Stability entry is “++ (an improvement greater than 2-fold)”.

B6: S20: Tgase variant S2P Q51A Q74T K95I Q124L K151R K152R relative to SEQ ID NO: 2 (protein, UniProt P81453 77-407, looked up, variant S2P Q51A Q74T K95I Q124L K151R K152R)
Protein-glutamine …: B1 Protein-glutamine … with N39Q, E51A, Q74T, K95I, Q124L, K151R, K152R
Turning to B6, the Stability result is “+ (an improvement between 1.2 and 2-fold)”.

B7: S12: Tgase variant S2P Q124L K151R K152R relative to SEQ ID NO: 2 (protein, UniProt P81453 77-407, looked up, variant S2P Q124L K151R K152R)
Protein-glutamine …: B1 Protein-glutamine … with N39Q, E51Q, Q124L, K151R, K152R
As to B7, the Stability result is “++ (an improvement greater than 2-fold)”.

B8: S19: Tgase variant S2P K49H Q50A Q74C Q124N K151R K152R relative to SEQ ID NO: 2 (protein, UniProt P81453 77-407, looked up, variant S2P K49H Q50A Q74C Q124N K151R K152R)
Protein-glutamine …: B1 Protein-glutamine … with N39Q, K49H, Q50A, E51Q, Q74C, Q124N, K151R, K152R
Regarding B8, the Stability entry was “+ (an improvement between 1.2 and 2-fold)”.

B9: S16: Tgase variant S2P Q50S Q74A K91H Q124L K151R K152R relative to SEQ ID NO: 2 (protein, UniProt P81453 77-407, looked up, variant S2P Q50S Q74A K91H Q124L K151R K152R)
Protein-glutamine …: B1 Protein-glutamine … with N39Q, Q50S, E51Q, Q74A, K91H, Q124L, K151R, K152R
On to B9, for which the Stability result is “++ (an improvement greater than 2-fold)”.

B10: S1: Tgase variant S2P Q50H relative to SEQ ID NO: 2 (protein, UniProt P81453 77-407, looked up, variant S2P Q50H)
Protein-glutamine …: B1 Protein-glutamine … with N39Q, Q50H, E51Q
For B10, the Stability entry is reported as “++ (an improvement greater than 2-fold)”.

B11: S10: Tgase variant S2P Q124E K151R K152R relative to SEQ ID NO: 2 (protein, UniProt P81453 77-407, looked up, variant S2P Q124E K151R K152R)
Protein-glutamine …: B1 Protein-glutamine … with N39Q, E51Q, Q124E, K151R, K152R
For B11, the Stability result is reported as “++ (an improvement greater than 2-fold)”.

B12: S18: Tgase variant S2P K49H Q50A Q74C Q124L K151R K152R relative to SEQ ID NO: 2 (protein, UniProt P81453 77-407, looked up, variant S2P K49H Q50A Q74C Q124L K151R K152R)
Protein-glutamine …: B1 Protein-glutamine … with N39Q, K49H, Q50A, E51Q, Q74C, Q124L, K151R, K152R
With B12, the Stability result was “+ (an improvement between 1.2 and 2-fold)”.

B13: S21: Tgase variant S2P Q50T Q51A Q74M K95E Q124L K151R K152R relative to SEQ ID NO: 2 (protein, UniProt P81453 77-407, looked up, variant S2P Q50T Q51A Q74M K95E Q124L K151R K152R)
Protein-glutamine …: B1 Protein-glutamine … with N39Q, Q50T, E51A, Q74M, K95E, Q124L, K151R, K152R
Turning to B13, the Stability entry was “+ (an improvement between 1.2 and 2-fold)”.

B14: S7: Tgase variant S2P K49T Q74M relative to SEQ ID NO: 2 (protein, UniProt P81453 77-407, looked up, variant S2P K49T Q74M)
Protein-glutamine …: B1 Protein-glutamine … with N39Q, K49T, E51Q, Q74M
As for B14, the Stability result was “+ (an improvement between 1.2 and 2-fold)”.

B15: S6: Tgase variant S2P Q56M Q74S relative to SEQ ID NO: 2 (protein, UniProt P81453 77-407, looked up, variant S2P Q56M Q74S)
Protein-glutamine …: B1 Protein-glutamine … with N39Q, E51Q, Q56M, Q74S
Regarding B15, the Stability entry was “++ (an improvement greater than 2-fold)”.

B16: S8: Tgase variant S2P K49T Q74F relative to SEQ ID NO: 2 (protein, UniProt P81453 77-407, looked up, variant S2P K49T Q74F)
Protein-glutamine …: B1 Protein-glutamine … with N39Q, K49T, E51Q, Q74F
Regarding B16, the Stability result is “+ (an improvement between 1.2 and 2-fold)”.

B17: S2: Tgase variant S2P Q74V relative to SEQ ID NO: 2 (protein, UniProt P81453 77-407, looked up, variant S2P Q74V)
Protein-glutamine …: B1 Protein-glutamine … with N39Q, E51Q, Q74V
As to B17, the Stability result is “++ (an improvement greater than 2-fold)”.

B18: S17: Tgase variant S2P Q50S Q74A K91H Q124N K151R K152R relative to SEQ ID NO: 2 (protein, UniProt P81453 77-407, looked up, variant S2P Q50S Q74A K91H Q124N K151R K152R)
Protein-glutamine …: B1 Protein-glutamine … with N39Q, Q50S, E51Q, Q74A, K91H, Q124N, K151R, K152R
Take B18: the Stability entry is “+ (an improvement between 1.2 and 2-fold)”.

B19: S11: Tgase variant S2P Q124I K151R K152R relative to SEQ ID NO: 2 (protein, UniProt P81453 77-407, looked up, variant S2P Q124I K151R K152R)
Protein-glutamine …: B1 Protein-glutamine … with N39Q, E51Q, Q124I, K151R, K152R
With B19, the Stability entry is “++ (an improvement greater than 2-fold)”.

B20: S4: Tgase variant S2P Q51P relative to SEQ ID NO: 2 (protein, UniProt P81453 77-407, looked up, variant S2P Q51P)
Protein-glutamine …: B1 Protein-glutamine … with N39Q, E51P
As for B20, the Stability entry was “+ (an improvement between 1.2 and 2-fold)”.

B21: S9: Tgase variant S2P Q51I K95I relative to SEQ ID NO: 2 (protein, UniProt P81453 77-407, looked up, variant S2P Q51I K95I)
Protein-glutamine …: B1 Protein-glutamine … with N39Q, E51I, K95I
On to B21, for which the Stability result is “+ (an improvement between 1.2 and 2-fold)”.

Source of the values: patent US20260327578A1, “TRANSGLUTAMINASES AND USES THEREOF” (CURIE CO. INC., priority 2023, published 2026).
